This data set concerns the molecule itself. The data set can be described thus: cryo-EM structure.

B1: human ABCG2 E211Q mutant (ABCG2EQ) (natural protein)
chain: MSSSNVEVFIPVSQGNTNGFPATASNDLKAFTEGAVLSFHNICYRVKLKSGFLPCRKPVEKEILSNINGIMKPGLNAILGPTGGGKSSLLDVLAARKDPSGLSGDVLINGAPRPANFKCNSGYVVQDDVVMGTLTVRENLQFSAALRLATTMTNHEKNERINRVIQELGLDKVADSKVGTQFIRGVSGGERKRTSIGMELITDPSILFLDQPTTGLDSSTANAVLLLLKRMSKQGRTIIFSIHQPRYSIFKLFDSLTLLASGRLMFHGPAQEALGYFESAGYHCEAYNNPADFFLDIINGDSTAVALNREEDFKATEIIEPSKQDKPLIEKLAEIYVNSSFYKETKAELHQLSGGEKKKKITVFKEISYTTSFCHQLRWVSKRSFKNLLGNPQASIAQIIVTVVLGLVIGAIYFGLKNDSTGIQNRAGVLFFLTTNQCFSSVSAVELFVVEKKLFIHEYISGYYRVSSYFLGKLLSDLLPMRMLPSIIFTCIVYFMLGLKPKADAFFVMMFTLMMVAYSASSMALAIAAGQSVVSVATLLMTICFVFMMIFSGLLVNLTTIASWLSWLQYFSIPRYGFTALQHNEFLGQNFCPGLNATGNNPCNYATCTGEEYLVKQGIDLSPWGLWKNHVALACMIVIFLTIAYLKLLFLKKYS
Turning to B1, the binding result is given as “binds”.

(Values after paper PMC6379061 (Nature, 2018).)
